Patent US8173600

Biological target: T1, 2-Quinolinylcarbonyl-L-Valinyl-L-Aspartyl (methyl ester)-L-Valinyl-L-Alanyl-L-Aspartyl (methyl ester) 2,6-difluorophenyl ester
T1 chain: VDVAD

B1: human recombinant caspase-1 (protein)
chain: NPAMPTSSGSEGNVKLCSLEEAQRIWKQKSAEIYPIMDKSSRTRLALIICNEEFDSIPRRTGAEVDITGMTMLLQNLGYSVDVKKNLTASDMTTELEAFAHRPEHKTSDSTFLVFMSHGIREGICGKKHSEQVPDILQLNAIFNMLNTKNCPSLKDKPKVIIIQACRGDSPGVVWFKDSVGVSGNLSLPTTEEFEDDAIKKAHIEKDFIAFCSSTPDNVSWRHPTMGSVFIGRLIEHMQEYACSCDVEEIFRKVRFSFEQPDGRAQMPTTERVTLTRCFYLFPGH
For B1, the “in vitro cleavage of Ac-YVAD-AMC by the recombinant caspase” value was “no cross reactivity against other caspases”.

B2: human recombinant caspase-7 (protein)
chain: AKPDRSSFVPSLFSKKKKNVTMRSIKTTRDRVPTYQYNMNFEKLGKCIIINNKNFDKVTGMGVRNGTDKDAEALFKCFRSLGFDVIVYNDCSCAKMQDLLKKASEEDHTNAACFACILLSHGEENVIYGKDGVTPIKDLTAHFRGDRCKTLLEKPKLFFIQACRGTELDDGIQADSGPINDTDANPRYKIPVEADFLFAYSTVPGYYSWRSPGRGSWFVQALCSILEEHGKDLEIMQILTRVNDRVARHFESQSDDPHFHEKKQIPCVVSMLTKELYFSQ
With B2 the “in vitro cleavage of Ac-DEVD-AMC by the recombinant caspase” value was “no cross reactivity against other caspases”.

B3: human recombinant caspase-10 (protein)
chain: VKTFLEALPQESWQNKHAGSNGNRATNGAPSLVSRGMQGASANTLNSETSTKRAAVYRMNRNHRGLCVIVNNHSFTSLKDRQGTHKDAEILSHVFQWLGFTVHIHNNVTKVEMEMVLQKQKCNPAHADGDCFVFCILTHGRFGAVYSSDEALIPIREIMSHFTALQCPRLAEKPKLFFIQACQGEEIQPSVSIEADALNPEQAPTSLQDSIPAEADFLLGLATVPGYVSFRHVEEGSWYIQSLCNHLKKLVPRMLKFLEKTMEIRGRKRTVWGAKQISATSLPTAISAQTPRPPMRRWSSVS
B3 was tested, and the “in vitro cleavage of Ac-IETD-AMC by the recombinant caspase” value was “no cross reactivity against other caspases”.

B4: human recombinant caspase-9 (protein)
chain: MDEADRRLLRRCRLRLVEELQVDQLWDALLSRELFRPHMIEDIQRAGSGSRRDQARQLIIDLETRGSQALPLFISCLEDTGQDMLASFLRTNRQAAKLSKPTLENLTPVVLRPEIRKPEVLRPETPRPVDIGSGGFGDVGALESLRGNADLAYILSMEPCGHCLIINNVNFCRESGLRTRTGSNIDCEKLRRRFSSLHFMVEVKGDLTAKKMVLALLELAQQDHGALDCCVVVILSHGCQASHLQFPGAVYGTDGCPVSVEKIVNIFNGTSCPSLGGKPKLFFIQACGGEQKDHGFEVASTSPEDESPGSNPEPDATPFQEGLRTFDQLDAISSLPTPSDIFVSYSTFPGFVSWRDPKSGSWYVETLDDIFEQWAHSEDLQSLLLRVANAVSVKGIYKQMPGCFNFLRKKLFFKTS
With B4 the “in vitro cleavage of Ac-LEHD-AMC by the recombinant caspase” value was “no cross reactivity against other caspases”.

B5: human recombinant caspase-8 (protein)
chain: SESQTLDKVYQMKSKPRGYCLIINNHNFAKAREKVPKLHSIRDRNGTHLDAGALTTTFEELHFEIKPHDDCTVEQIYEILKIYQLMDHSNMDCFICCILSHGDKGIIYGTDGQEAPIYELTSQFTGLKCPSLAGKPKVFFIQACQGDNYQKGIPVETDSEEQPYLEMDLSSPQTRYIPDEADFLLGMATVNNCVSYRNPAEGTWYIQSLCQSLRERCPRGDDILTILTEVNYEVSNKDDKKNMGKQMPQPTFTLRKKLVFPSD
For B5, the “in vitro cleavage of Ac-IETD-AMC by the recombinant caspase” value was “no cross reactivity against other caspases”.

B6: human recombinant caspase-6 (protein)
chain: AFYKREMFDPAEKYKMDHRRRGIALIFNHERFFWHLTLPERRGTCADRDNLTRRFSDLGFEVKCFNDLKAEELLLKIHEVSTVSHADADCFVCVFLSHGEGNHIYAYDAKIEIQTLTGLFKGDKCHSLVGKPKIFIIQACRGNQHDVPVIPLDVVDNQTEKLDTNITEVDAASVYTLPAGADFLMCYSVAEGYYSHRETVNGSWYIQDLCEMLGKYGSSLEFTELLTLVNRKVSQRRVDFCKDPSAIGKKQVPCFASMLTKKLHFFPKSN
In the case of B6, the “in vitro cleavage of Ac-VEID-AMC by the recombinant caspase” value is reported as “no cross reactivity against other caspases”.

B7: human recombinant caspase-5 (protein)
chain: DQKITSVKPLLQIEAGPPESAESTNILKLCPREEFLRLCKKNHDEIYPIKKREDRRRLALIICNTKFDHLPARNGAHYDIVGMKRLLQGLGYTVVDEKNLTARDMESVLRAFAARPEHKSSDSTFLVLMSHGILEGICGTAHKKKKPDVLLYDTIFQIFNNRNCLSLKDKPKVIIVQACRGEKHGELWVRDSPASLALISSQSSENLEADSVCKIHEEKDFIAFCSSTPHNVSWRDRTRGSIFITELITCFQKYSCCCHLMEIFRKVQKSFEVPQAKAQMPTIERATLTRDFYLFPGN
For B7, the “in vitro cleavage of Ac-WEHD-AMC by the recombinant caspase” value was “no cross reactivity against other caspases”.

B8: human recombinant caspase-3 (protein)
chain: SGISLDNSYKMDYPEMGLCIIINNKNFHKSTGMTSRSGTDVDAANLRETFRNLKYEVRNKNDLTREEIVELMRDVSKEDHSKRSSFVCVLLSHGEEGIIFGTNGPVDLKKITNFFRGDRCRSLTGKPKLFIIQACRGTELDCGIETDSGVDDDMACHKIPVEADFLYAYSTAPGYYSWRNSKDGSWFIQSLCAMLKQYADKLEFMHILTRVNRKVATEFESFSFDATFHAKKQIPCIVSMLTKELYFYH
For B8, the “in vitro cleavage of Ac-DEVD-AMC by the recombinant caspase” value was “no cross reactivity against other caspases”.

B9: caspase-2 in brain of ischemic rat pups (protein)
chain: GPPCLQVKPCTPEFYQAHYQLAYRLQSQPRGLALVMSNVHFTGEKDLEFRSGGDVDHTTLVTLFKLLGYNVHVLYDQTAQEMQEKLQNFAQLPAHRVTDSCIVALLSHGVEGGIYGVDGKLLQLQEVFRLFDNANCPSLQNKPKMFFIQACRGDETDRGVDQQDGKNHAQSPGCEESDAGKEELMKMRLPTRSDMICGYACLKGNAAMRNTKRGSWYIEALTQVFSERACDMHVADMLVKVNALIKEREGYAPGTEFHRCKEMSEYCSTLCQQLYLFPGYPPT
B9 was tested, and the “caspase-2 activity (VDVAD-AMC cleavage) and caspase-2 processing (western blot) in brain homogenates” value was “it inhibited caspase-2 activity as well as caspase-2 processing in brain of ischemic rat pups”.

B10: human recombinant caspase-4 (protein)
chain: QISPNKKAHPNMEAGPPESGESTDALKLCPHEEFLRLCKERAEEIYPIKERNNRTRLALIICNTEFDHLPPRNGADFDITGMKELLEGLDYSVDVEENLTARDMESALRAFATRPEHKSSDSTFLVLMSHGILEGICGTVHDEKKPDVLLYDTIFQIFNNRNCLSLKDKPKVIIVQACRGANRGELWVRDSPASLEVASSQSSENLEEDAVYKTHVEKDFIAFCSSTPHNVSWRDSTMGSIFITQLITCFQKYSWCCHLEEVFRKVQQSFETPRAKAQMPTIERLSMTRYFYLFPGN
With B10 the “in vitro cleavage of Ac-WEHD-AMC by the recombinant caspase” value was “no cross reactivity against other caspases”.
